This note sets out measurements from patent publication US20030022244A1.

This experiment has as its target mutant p53 protein. Briefly: method not stated.

B1: ME1 single-chain antibody (scFv ME1) (scFv)
scFv: QVKLQQSGAELAKPGASVKMSCKTSGYTFTSYWMNWVKQRPGQGLEWIGYINPTTGYTKYNQKFKDKATLTADKSSSTAYMQLSSLTNVDSAVYYCTTGYSYFDYWGQGTTVTVSSGGGGSGGGGSGGGGSDIELTQSPAIMSASPGEKVTITCSASSSVNYMHWFQQKPGTSPKLWISSTSNLASGVPARFSGSGSGTSYSLTISRMEAEDAATYYCQQRSSYPYTFGGGTKLQIKRAAAGAPVPYPDPLEPRAA
Molecule B1 had a Kd of 100 nM.

Broadly, the Kd is the free concentration of one partner at which half of the binding sites on the other are occupied at equilibrium, for simple one-to-one binding. A high value points to a looser complex.
